Experiment [1] has as its target T1, GST-N protein (MHV N protein as a GST fusion construct) (mouse hepatitis virus (MHV-A59), UniProt P03416 1-454).
T1 sequence: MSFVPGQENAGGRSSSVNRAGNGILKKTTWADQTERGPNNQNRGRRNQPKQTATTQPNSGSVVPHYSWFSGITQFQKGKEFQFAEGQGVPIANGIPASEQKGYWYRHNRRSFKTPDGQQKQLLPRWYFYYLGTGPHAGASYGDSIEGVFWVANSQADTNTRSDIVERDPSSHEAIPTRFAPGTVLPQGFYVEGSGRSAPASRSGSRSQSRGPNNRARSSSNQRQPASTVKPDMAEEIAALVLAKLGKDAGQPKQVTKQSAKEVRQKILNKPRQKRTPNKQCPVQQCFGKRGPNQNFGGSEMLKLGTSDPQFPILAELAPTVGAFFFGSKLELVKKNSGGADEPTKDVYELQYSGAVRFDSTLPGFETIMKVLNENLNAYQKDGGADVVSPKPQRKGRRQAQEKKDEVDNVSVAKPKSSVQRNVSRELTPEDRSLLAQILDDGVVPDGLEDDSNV
As to the kind of experiment: pull-down. The note with it: one partner purified.

Experiment [2] concerns the target T2, 6xHis-tagged N2b-N3 truncation of MHV N protein (mouse hepatitis virus (MHV-A59), UniProt P03416 258-454).
T2 sequence: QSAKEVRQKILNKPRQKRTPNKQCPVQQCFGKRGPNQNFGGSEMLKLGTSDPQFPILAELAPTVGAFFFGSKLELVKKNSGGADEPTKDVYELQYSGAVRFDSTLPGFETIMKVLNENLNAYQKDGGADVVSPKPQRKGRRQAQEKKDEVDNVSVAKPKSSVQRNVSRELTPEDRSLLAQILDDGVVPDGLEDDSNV
As to the kind of experiment: pull-down. To be noted: one partner purified.

B1: 6xHis-tagged full length MHV N protein (natural protein)
chain: MSFVPGQENAGGRSSSVNRAGNGILKKTTWADQTERGPNNQNRGRRNQPKQTATTQPNSGSVVPHYSWFSGITQFQKGKEFQFAEGQGVPIANGIPASEQKGYWYRHNRRSFKTPDGQQKQLLPRWYFYYLGTGPHAGASYGDSIEGVFWVANSQADTNTRSDIVERDPSSHEAIPTRFAPGTVLPQGFYVEGSGRSAPASRSGSRSQSRGPNNRARSSSNQRQPASTVKPDMAEEIAALVLAKLGKDAGQPKQVTKQSAKEVRQKILNKPRQKRTPNKQCPVQQCFGKRGPNQNFGGSEMLKLGTSDPQFPILAELAPTVGAFFFGSKLELVKKNSGGADEPTKDVYELQYSGAVRFDSTLPGFETIMKVLNENLNAYQKDGGADVVSPKPQRKGRRQAQEKKDEVDNVSVAKPKSSVQRNVSRELTPEDRSLLAQILDDGVVPDGLEDDSNV
Regarding B1, in experiment [1], the binding result is recorded as “binds”.

B2: GST-N1 (MHV N protein truncation) (domain or fragment)
chain: MSFVPGQENAGGRSSSVNRAGNGILKKTTWADQTERGPNNQNRGRRNQPKQTATTQPNSGSVVPHYSWFSGITQFQKGKEFQFAEGQGVPIANGIPASEQKGYWYRHNRRSFKTPDGQQKQLLPRWYFYYLGTGPHAGASYGDSIEGVFWVANSQADTNTRSDIVERDPSSHEAIPTRFAPGTVLPQGFYVEGS
Take B2: the binding result in experiment [2] is given as “binds”.

Values taken from PMC5515880 (Scientific Reports, 2017).
